{"source": "paper PMC5890176", "key": {"[1]": {"system": "SpnHU (HU, histone-like protein) (Streptococcus pneumoniae R6)", "experiment": "EMSA (agarose)", "conditions": "2 nM DNA, 10 mM Tris-HCl pH 8.0, 50 mM KCl, 0.05% Brij 58, 0.01 mg/ml BSA, 5% glycerol, 0.01 mM EDTA, 0.01 mM DTT, room temperature 20 min, 0.5% agarose in TBE"}, "[2]": {"biological_target": "HU of Streptococcus pneumoniae (SpnHU) (Streptococcus pneumoniae R6)", "experiment": "cross-linking; 0.1% glutaraldehyde, room temperature, 30 min, 5 mM Tris-HCl pH 8.0, 25 mM KCl, 25% glycerol, 0.25 mM EDTA, 0.25 mM DTT; SDS-PAGE (15%), Coomassie; all tested concentrations"}}}
{"substance": "pBR322 supercoiled", "values": [{"measurement": "binding signal", "setting": "[1]; SpnHU concentration at which shift seen", "value": 0.2, "unit": "µM"}]}
{"substance": "pBR322 linear (PstI)", "values": [{"measurement": "binding signal", "setting": "[1]; SpnHU concentration required for shift (8-fold more than supercoiled)", "value": 1.6, "unit": "µM"}]}
{"substance": "pBR322 nicked (Nt.BstNBI)", "values": [{"measurement": "binding signal", "setting": "[1]; SpnHU concentration required for shift (16-fold more than supercoiled), nicked with Nt.BstNBI", "value": 3.2, "unit": "µM"}]}
{"substance": "HU of Streptococcus pneumoniae (SpnHU) (natural protein)", "values": [{"measurement": "stoichiometry N", "setting": "[2]", "value": 2}]}
